{
  "source": "the DeepSol protein solubility set",
  "data": [
    {"assay": "soluble on expression in E. coli; label from the status in PepcDB or PDB records", "values": [
      {"sequence": "EVVVTGYGDFKKATYTGSASVLNTDKLESLPVVSVAQMMEANIPGLSSVASSSQPGSKATVRVRGIASMNASTEPLYVLDGVPVASRDMSGLSANASAGGLGLIETLNPADIESITVLKDAASASLYGAKGSNGVILI", "soluble on expression in E. coli": "not soluble"},
      {"sequence": "MPPTPEVGLPLWLLAELTYRCPLQCPYCSNPLDFAAQGQELSTEQWFKVMAEAREMGAAQIGFSGGEPLVRQDLAQLIAEARRLGYYTNLITSGIGLTEARIADFKKAGLDHIQISFQASDEQVNNLLAGSKKAFAQKLEMARAVKAHGYPMVLNFVTHRHNIDKIDRIIELCIALEADFVELATCQFYGWAHLNRLGLLPTRAQLERAERITNEYRDKLKAEGNPCKLIFVTPDYYEERPKACMNGWGNLFLTITPDGTALPCH", "soluble on expression in E. coli": "not soluble"},
      {"sequence": "MKLLEVHILQTVAPSNLNRDDTGSPKDALFGGFRRARISSQAQKRAVRVAFRDWPLLSEEERAVRTKRLVEELLRRLAGVEEELARRAIENALNALGFGVKEGRTEYLLFLGNRELDALAQGIRENLEALSGEVKGKKKAEVPPELKKALERVLDGGKAVDLALFGRMLADRPELGVDAAAQVAHALSTHKVDREFDFYTAVDDLNPKEDTGAGMMGDVEFYSATLYRYAVVDLDKLVENLQGDKELALKGVLAFLEAFALTLPSGKQNSFAAHNPPLFVAFRAGEGMPRNLATAFEAPLRPKEEVPLSRLSAEALLKEWAKFDRVYGPLEPEWKGALDLTGAEGDGVPRLENLKALKEKAAEAVKALLGV", "soluble on expression in E. coli": "soluble"},
      {"sequence": "MGSDKIHHHHHHMALVKLQTQHFRNLLSAPVEFSPSFNLLYGANGSGKTSVLEAIGYLGLGRSFRVSRHQAVVAHGQSKLTVFGALDSGLLAQESSEKVEHRIGISRDVSLKETQLRVDGEAVRSLSFLAMHLPVSVIDPGVFDIVAGGPGKRRQFLDWLVFHVEPSFSSLWQQVQRVTSQRNQMLRNGRLDESLMRVWDSQYGALAESLSDIRETVFQRFKIAFESVLAELDAPWVEGLKMDFYPGWDRSTALTEVLVNHREQERRMGHTLYGPNRADIRLKFGGRPVAETFSRGQQKTLVILMKIAQGKVLSDLGKQVTFLLDDINAELDVRHRVMLARNLQELRCQVFITSIEHPEPDTLWHDGDTPEYRMFHVEHGQLTEE", "soluble on expression in E. coli": "not soluble"},
      {"sequence": "TGAITVGNKNNDKLTLWTTPAPSPNCRLNAEKDAKLTLVLTKCGSQILATVSVLAVKGSLAPISGTVQSAHLIIRFDENGVLLNNSFLDPEYWNFRNGDLTEGTAYTNAVGFMPNLSAYPKSHGKTAKSNIVSQVYLNGDKTKPVTLTITLNGTQETGDTTPSAYSMSFSWDWSGHNYINEIFATSSYTFSYIAQE", "soluble on expression in E. coli": "soluble"},
      {"sequence": "MGSDKIHHHHHHLELPLPPPGEDIVGQVHVIKAKYEDTFADIGTANDLGYLEMIAANPGVDPWLPGAGTEIILPTRFVLPPGPREGIVINLAEYRMYYFPKGESVVYTFPLGIGREGWGSPIANTRITAKTPNPTWTPPASIRKEHAEDGDILPTVVPAGPDNPLGPFKFTLGVPGYLIHGSNKKFGIGMRTSHGCFRMFNNNVLELSKMVPVGTPVRIINEPYKFGISAGKVYLEAHTPLDDQGNPSVVDKHTAVINALLKREDLANNLRMNWDMVRDVVAAEDGMPVEIAVPVENQGAAPMVTSIPPELQ", "soluble on expression in E. coli": "not soluble"},
      {"sequence": "MKRLDKKEALDLLHHASLTELGEMAYKRKLELHPEKITTFVVDRNINYTNVCCIDCSFCAFYRHHKEDDAYILSFEEIGKKIEELEAIGGTQILFQGGVHPKLKIEWYEELVSWIKEHYPNITVHGFSAVEIAYIAKASKISITEVLKRLQAKGLFSIPGAGAEVLSDRVRDIIAPNKCDTATWLEVHRQAHKIGMKSTATMMFGTVENDEEIIDHFEHLRKLQDETGGFRAFILWSFQSDNTALIQKHPEIMKQSSNKYLRLLALVRLYLDNFKNLQSSWVTQGSLIGQLALKFGANDLGSTMMEENVVSAAGASYRMNQDEMIRLIRSLGENPAKRNTAYEILERFLEHHHHHH", "soluble on expression in E. coli": "not soluble"},
      {"sequence": "MGSDKIHHHHHHMNNMEIWVVDDDRDYCELIVEMLQDEFKVSPFYGAADFRVALQTQKPDLLLMDINLPDTDGITLCRELQASNQEVAVLFVSGMNTLEERLKAYEVNAVDFIAKPFELKELLAKVHSVAHYVMKQRELIQAESVSRNMAFQSMTESSQYGCVLQFFRQCFLCNDHQTLADAFFDLMQQLNLNTCLEIRGENVEYFAPRHAAISPIESNILELLDKHGRLYDFGCRTICNDKHVSFLIKNMPINDEVLYGRLRDIIAVVVEGLEARVLDISRQQTLTQVFLDIESLIGDINVATLEHDEKFSAALINMTTEIRGSFHVLDMTIEQEDYFTALIERNLKEVKSASEAFTRLQSALGKVMDVLGGSVS", "soluble on expression in E. coli": "not soluble"},
      {"sequence": "MADANATICYLNGLSLHTINEVEKILLALPKKGDRCEVQMSKPLNRCIGRSTGDVIASRSVQIRDEPKPLSLSPQKSEQEIKKSSKSKKLSEDCCLRSIKERVEIVETRNGSDAFGAKKLQYKVLTDQVRVSPIVSCNGVTLELDVEVTIPDRDEKKKLKLEIDRTLSVLILSIRNH", "soluble on expression in E. coli": "not soluble"},
      {"sequence": "MAHHHHHHMLETQHLHTHSGRLIPPPPRRTPRRKSSVCRTPTRRHNPAESGLSASSKTTRSDVYECRMAPVRGRRESHDSTPGRPRAPEDVNYARGRSMNERPAPSKPQCAIPSKNGRLEESRASTLAVDRERFSQTRWGRSDEIISQSPLAGRSHSLREGEFCDPQALTMRLRHSLSRGYSPQCGHPTQAVVGTELAPPMPRLQGAYGTSKNRYRKTIERFIECQPTNTQKEMQSMLEEYRGRENELCEALSVAYSDSWEASVRGNDTIIQSHKNDNCSKFALNESPGMPEMKDFPRVGNGKGHFDSMNNGECNHNATAENHRQRMTKPTSSSHSTPSRFQDSHQNVDCLRSFSDVATPRRNEGINLSKSAEKERYDEDTSPHLRNGSSGGVNVPLSLGIILEQGETSPRSGGMLTPPIPADLLAR", "soluble on expression in E. coli": "not soluble"},
      {"sequence": "SNAMFHYTVDVSTGMNETIERLEESLKQEGFGVLWQFSVTEKLQEKGLDFSTPMVILEVCNPQEAARVLNENLLVGYFLPCKLVVYQENGTTKIGMPKPTMLVGMMNDPALKEIAADIEKRLAACLDRCR", "soluble on expression in E. coli": "soluble"},
      {"sequence": "MKVTKSEIVISAVKPEQYPEGGLPEIALAGRSNVGKSSFINSLINRKNLARTSSKPGKTQTLNFYIINDELHFVDVPGYGFAKVSKSEREAWGRMIETYITTREELKAVVQIVDLRHAPSNDDVQMYEFLKYYGIPVIVIATKADKIPKGKWDKHAKVVRQTLNIDPEDELILFSSETKKGKDEAWGAIKKMINR", "soluble on expression in E. coli": "soluble"},
      {"sequence": "MPFRNAVQTASPPTTPKQKAHHDRIHVHPFGLGTHLCQRPLPHDQTVRRGRTQAQTFRTPHDRAGGRFRADRRSCLHPRIPCRIGTRSGLGVLCHSRLPVPDFCVSMFCVAVFLAHAQQGIDKHRNAV", "soluble on expression in E. coli": "not soluble"},
      {"sequence": "PSTLLKNYQDNNKMLVLALENEKSKVKEAQDIILQLRKECYYLTCQL", "soluble on expression in E. coli": "soluble"},
      {"sequence": "MSLKLVEILVLGQVLRLNVPIEQEELLRQAARNLDILVSEMKEKTGLIQLDRVLSIVALNLSFELSQEKNKTAKIEEVLRTGIQQLDHSLENIRVTKEPH", "soluble on expression in E. coli": "soluble"},
      {"sequence": "SNAQVEVIVMMHGRSTATSMVETVQELLSIESGIALDMPLTVEVKAMYEKLKQTVVKLNPVKGVLILSDMGSLTSFGNILTEELGIRTKTVTMVSTPVVLEAMRKASLGRGLEDIYQSCEQLFENKYKAH", "soluble on expression in E. coli": "soluble"},
      {"sequence": "MDLAAHIDHTLLKPTATLEEVAKAAEEALEYGFYGLCIPPSYVAWVRARYPHAPFRLVTVVGFPLGYQEKEVKALEAALACARGADEVDMVLHLGRAKAGDLDYLEAEVRAVREAVPQAVLKVILETGYFSPEEIARLAEAAIRGGADFLKTSTGFGPRGASLEDVALLVRVAQGRAQVKAAGGIRDRETALRMLKAGASRLGTSSGVALVAGEGGTLGY", "soluble on expression in E. coli": "soluble"},
      {"sequence": "MGSDKIHHHHHHETQPESAAFTAPSTDNPIRINFNENPLGMSPKAQAAARDAVVKANRYAKNEILMLGNKLAAHHQVEAPSILLTAGSSEGIRAAIEAYASLEAQLVIPELTYGDGEHFAKIAGMKVTKVKMLDNWAFDIEGLKAAVAAYSGPSIVYLVNPNNPTGTITPADVIEPWIASKPANTMFIVDEAYAEFVNDPRFRSISPMITQGAENIILLKTFSKIHAMAGMRVGYAVAHPTVIALMGRYVAGEKINFSGVDAALASMNDSAFITYSKKSNDVSRQILLKALEDLKLPYLPSEGNFVFHQLVVPLKDYQTHMADAGVLIGRAFPPADNWCRISLGTPQEMQWVADTMREFRKKSWI", "soluble on expression in E. coli": "not soluble"},
      {"sequence": "MILAVLQARMGSSRLPGKSMATLQGEPMIVRQLERLRGARCLSKIIVATSQDPADDALAGFLVSRGNTVHRGAGADILARIARCADAISAVSHVVRLKGDAPFMDPGVVDDAVRMALASGADYTSNRVHRTYPAGLEVEVIKAGVLRQAAAEERDPTARISPTAAIRNQPERWRQAHLRAARDCSRLDWRVKTAADLAFARSVYDALHPGDPDFRMGDVLDLLENRQDIARFAALEHHHHHH", "soluble on expression in E. coli": "not soluble"},
      {"sequence": "APTMTEFVGTAGGDTVGLVIANVDSLLHKHLGLDNTCRSIGIISARVGAPAQMMAADEAVKGTNTEVATIELPRDTKGGAGHGIFIVLKAADVSDARRAVEIALKQTDKYLGNVYLCDAGHLEVQYTARASLIFEKAFGAPSGQAFGIMHAAPAGVGMIVADTALKTADVKLITYGSPTNGVLSYTNEILITISGDSGAVLQSLTAARKAGLSILRSMGQDPVSMSKPTF", "soluble on expression in E. coli": "soluble"},
      {"sequence": "MTMGKRTQAPALEVRLLREGIIESKHIVQAVVCDERGRVLSVAGNSETATFVRSALKPFQALAVTTTGTLERYDLSDRDLAIITSSHKGTIEQVRQAFNILWRADLDPSVLQCPIPQGKRSPLEYNCSGKHAGMLAICQQRHWPLNNYMDRKHPVQQLVLAKVAELLRMPAAEFISAHDDCGVPTYLLQLGQISSLYALLAASNNLDMERIVRAMTHHPSMVAGEREFDTELMRLTPGELVSKSGAEGVQCIGRLGEGMGLTIKVMDGAKRAKYAVAIHLLQQMGWITPSVAESLAEKFMNPGKYTRLEVVGELSLLLEHHHHHH", "soluble on expression in E. coli": "not soluble"},
      {"sequence": "MAANGAKGRKVMRVLVVDNYDSFTYNLVQYLGELGAEPIVWRNDRFRLEEVEALDPDRILISPGPCTPFEAGLSVPLVQRYAPRYPILGVCLGHQAIGAAFGGKVVPAPVLMHGKVSPIHHDGTGVFRGLDSPFPATRYHSLAVVEVPEALVVNAWAEEAGGRTVMGFRHRDYPTHGVQFHPESYLTEAGKLILKNFLEDPWTR", "soluble on expression in E. coli": "soluble"},
      {"sequence": "MSEVTRSLLQRWGASLRRGADFDSWGQLVEAIDEYQILARHLQKEAQAQHNNSEFTEEQKKTIGKIATCLELRSAALQSTQSQEEFKLEDLKKLEPILKNILTYNKEFPFDVQPI", "soluble on expression in E. coli": "soluble"},
      {"sequence": "LSFSSAVKNELCRVETDRSSSLFELAAAARISGLIKVVNANEINLRLVTENAAFARRIFSQIKDLYGINAEISIRRSPKLKKNIVYIIVLTSSKGLMRILEDINIKVSEKVEYIPYARCMRKKEYRKAYLRGAFLASGSMSDPEKTYHLEITCHNMALATEVSDLMDSFKLHSKVTKRKGNYVVYLKEGENIVDFLNIIGAHSALLELENIRILKEMRNNVNRIVNCETANLQKTVDASVRQVENINYIKEHLGFDKLPENLREIAKMRLAYSDATLKELGEMLNPPLGKSGVNHRLRKLDKIAESLRNMKGEL", "soluble on expression in E. coli": "soluble"},
      {"sequence": "TSTKLNTTTSAAYLSTGIKALDSMLGSKGYQTGSQIIISGRSGTAKTLFATSFAQSAVRQGRKVLFISFEESPNDLIRHVKSINIDLMKYITKKKLHINSRRSVEMGLEDHIISIIELTEEKQFDVLILDPISALLDLGNTMEVKRLFIRFISYMKSLNKTLLFTELIPDYSKELTILGLSSLTETWIRLSNVESNGEFNRLIHIAKARGIKTSNQIKEFYVTDKGINIEAPYLGDNQMMFGSQKSA", "soluble on expression in E. coli": "not soluble"}
    ]}
  ]
}
